# B1: CCDC6 (parent)
# chain: ASVTIQARAEQEEEFISNTLFKKI
# B2: ZNF449 (parent)
# chain: CTHCSKSFRQRAGLIMHQVTHFRG
# Variants of: B1
# Assay: protein stability index of a GFP-peptide fusion (GPS, HEK-293T) (PSI 1-6); higher = more stable
# Settings: c terminus: a fixed tail appended
# 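Further: lentivirally expressed fusions sorted by FACS into six bins by GFP to DsRed ratio, PSI derived from sequencing read proportions per bin multiplied by bin number.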
row,Variant,protein stability index
1,K23S,3.04
2,F15T,4.52
3,F15A,4.49
4,A1S,3.75
5,F21Q,5.01
6,I5Q,5.03
7,E10A,3.06
8,E10S,3.14
9,I24V,3.71
10,I24H,4.37
11,I24S,4.17
12,T19V,3.21
13,T19Q,3.86
14,A7H,3.6
15,S2M,2.81
16,S2K,3.38
17,S2H,3.17
18,K22M,1.74
19,A9M,3.08
20,A9C,3.23
21,A9F,2.37
22,Q11S,3.75
23,Q11M,2.29
24,N18H,3.41
25,I16L,3.94
26,I16M,3.82

# Variants of: B2
# Assay: as above
# Settings: c terminus: a fixed tail appended
row,Variant,protein stability index
1,R11K,1.82
2,R11Q,1.8
3,R11Y,2.29
4,R11C,3.42
5,R11G,2.28
6,R11A,2.28
7,R11P,1.84
8,R11T,1.69
9,R11L,3.44
10,R11D,1.58
11,R11S,1.48
12,R11E,2.79
13,R11M,3.23
14,R11N,1.8
15,R11F,2.46
16,R11W,1.94
17,R11H,1.87
18,R11V,2.23
19,V19Y,2.55
20,V19I,2.91
21,V19A,2.01
22,V19N,2.82
23,V19D,1.81
24,V19L,2.92

row,Variant,protein stability index
1,V19G,2.74
2,V19W,2.71
3,V19E,3.08
4,V19S,1.79
5,V19M,2.12
6,V19T,1.88
7,V19K,3.79
8,V19P,1.76
9,V19F,2.4
10,V19Q,2
11,V19H,1.89
12,V19C,3.24
13,V19R,3.95
14,S7V,2.22
15,S7T,1.08
16,S7W,1.78
17,S7Y,2.44
18,I15A,2.39
19,I15M,2.49
20,I15Y,2.44
21,I15G,1.94
22,I15D,2.93
23,I15Q,2.76
24,I15F,2.4

row,Variant,protein stability index
1,I15T,2.3
2,I15S,3.21
3,I15E,3.59
4,I15V,3.12
5,I15R,2.66
6,I15K,2.36
7,I15H,2.2
8,I15W,2.9
9,I15N,1.73
10,I15P,1.22
11,A12P,2.69
12,A12V,1.48
13,A12C,2.29
14,A12R,3.35
15,A12E,3.82
16,A12K,3.49
17,A12Y,1.9
18,A12M,2.25
19,A12Q,3.53
20,A12W,2.53
21,A12F,2.25
22,A12I,2.36
23,A12N,2.06
24,A12G,2.44

row,Variant,protein stability index
1,A12H,1.88
2,A12D,3.09
3,A12T,2.2
4,A12L,2.11
5,L14Q,2.02
6,L14G,1.41
7,L14E,1.95
8,L14S,1.9
9,L14T,2.09
10,L14P,1.54
11,L14W,2.05
12,L14M,1.97
13,L14Y,1.5
14,L14D,2.14
15,L14F,2.54
16,L14H,2
17,L14V,2.37
18,L14N,1.49
19,L14C,1.73
20,L14K,2.05
21,L14R,2.01
22,L14I,1.3
23,Q18W,1.29
24,Q18E,2.09

row,Variant,protein stability index
1,Q18S,2.48
2,Q18L,2.11
3,Q18M,1.69
4,Q18F,1.67
5,Q18C,1.9
6,Q18N,1.53
7,Q18H,1.72
8,Q18A,1.51
9,Q18P,3.9
10,Q18G,1.32
11,Q18R,1.73
12,Q18K,1.69
13,Q18Y,3.18
14,Q18V,1.52
15,Q18T,1.43
16,Q18I,1.96
17,Q18D,2.79
18,G24I,2.44
19,G24Y,2.41
20,G24R,2.29
21,G24S,2.33
22,G24D,3.59
23,G24F,2.68
24,G24W,3.25

row,Variant,protein stability index
1,G24N,2.91
2,G24M,2.81
3,G24V,3.46
4,G24P,3.29
5,G24E,2.88
6,G24L,3.55
7,G24K,3.01
8,G24T,2.69
9,G24Q,3.19
10,G24H,2.17
11,G24A,2.82
12,G24C,2.53
13,F8C,2.74
14,F8I,2.15
15,F8V,1.07
16,F8H,1.44
17,F8E,2.19
18,F8R,2.1
19,F8K,1.9
20,F8L,1.79
21,F8M,1.38
